Measurements published in article PMC8931436, “Glycosylphosphatidylinositol-anchored micronemal antigen (GAMA) interacts with the band 3 receptor to promote erythrocyte invasion by malaria parasites” (The Journal of Biological Chemistry, 2022).

T1: ANK1-F2 (ankyrin 1 membrane-binding domain fragment 2, aa 250–568) (human, UniProt P16157 250-568)
T1 construct: amplified from cDNA of human reticulocyte mRNA; also called HA-ANK1-F2; HA-tagged ANK1-F2; source: E. coli BL21 (DE3) pLysS, pET30a, purified; not shown: HA, C-terminal, kept
T1 sequence (looked up): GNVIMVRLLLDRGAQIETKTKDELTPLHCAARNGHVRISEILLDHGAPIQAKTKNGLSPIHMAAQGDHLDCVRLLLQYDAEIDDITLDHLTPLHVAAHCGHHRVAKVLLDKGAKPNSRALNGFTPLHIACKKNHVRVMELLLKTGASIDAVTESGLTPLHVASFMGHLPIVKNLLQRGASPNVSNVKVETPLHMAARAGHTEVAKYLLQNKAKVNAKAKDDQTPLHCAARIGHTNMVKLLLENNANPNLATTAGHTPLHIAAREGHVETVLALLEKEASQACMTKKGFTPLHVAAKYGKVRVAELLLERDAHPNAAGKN

B1: recombinant PfGAMA-Tr3 (P. falciparum glycosylphosphatidylinositol-anchored micronemal antigen, aa 500–715) (domain or fragment)
chain: KDIIKLLKDLIKYLHIVKFENNEPTTNIDEEGIRKLLENSFFDLNDDILIVRLLLKPQTVILTVIQSFMLMTPSPSRDAKAYCKKALINDQLVPTNDTNILSEENELVNNFSTKYVLIYEKMKLQELKEMEESKLKMKYSKTNLSALQVTNPQNNKDKNDASNKNNNPNNSSTPLIAVVTDLSGEKTEDIINNNVDIATLSVGVQNTFQGPNAKAG
notes: PfGAMA, P. falciparum, PF3D7_0828800, 738-amino acid protein; Cloned into BamH1/Xho1 sites of pET30a; further vector-encoded residues may be present; also called His-PfGAMA-Tr3; Flag-PfGAMA-Tr3; source: E. coli BL21 (DE3) pLysS, pET30a, purified (Ni-NTA); not shown: Flag, C-terminal, kept
B2: recombinant PvGAMA-F2 (P. vivax glycosylphosphatidylinositol-anchored micronemal antigen, aa 345–589) (domain or fragment)
chain: DVSVDEKGDRATTAGGNQSASVAAAAPKDAGPTVAAPNTAATLKTAASPNAAATNTAAPPNMGATSPLSNPLYGTSSLQPKDVAVLVRDLLKNTNIIKFENNEPTSQMDDEEIKKLIESSFFDLSDNTMLMRLLIKPQAAILLIIESFIMMTPSPTRDAKTYCKKALVNGQLIETSDLNAATEEDDLINEFSSRYNLFYERLKLEELREIEQNRKALKNSKGTLSVLEVANSQNAPDGKGVNGSG
notes: PvGAMA, P. vivax, PVX_088910, 771-amino acid protein; Cloned into BamH1/Xho1 sites of pET30a; further vector-encoded residues may be present; also called His-PvGAMA-F2; source: E. coli BL21 (DE3) pLysS, pET30a, purified (Ni-NTA); not shown: Flag, C-terminal, kept

Molecular target: T1, ANK1-F2 (ankyrin 1 membrane-binding …)
Test: SPR; BIAcore S200, 25 °C, HBS-EP pH 7.4; ANK1-F2 immobilised on a CM5 chip, PfGAMA-Tr3 or PvGAMA-F2 injected at varying concentrations; response at equilibrium against concentration, 1:1 Langmuir model
Conditions: both partners purified

Row | Binder | Kd
1 | B1 | 0.166 µM
2 | B2 | 13.8 µM
